Test results from publication PMC7865148 (Proceedings of the National Academy of Sciences of the …, 2021).

T1: NST1-GST fusion protein (Arabidopsis thaliana, UniProt Q84WP6 1-365)
T1 sequence (looked up): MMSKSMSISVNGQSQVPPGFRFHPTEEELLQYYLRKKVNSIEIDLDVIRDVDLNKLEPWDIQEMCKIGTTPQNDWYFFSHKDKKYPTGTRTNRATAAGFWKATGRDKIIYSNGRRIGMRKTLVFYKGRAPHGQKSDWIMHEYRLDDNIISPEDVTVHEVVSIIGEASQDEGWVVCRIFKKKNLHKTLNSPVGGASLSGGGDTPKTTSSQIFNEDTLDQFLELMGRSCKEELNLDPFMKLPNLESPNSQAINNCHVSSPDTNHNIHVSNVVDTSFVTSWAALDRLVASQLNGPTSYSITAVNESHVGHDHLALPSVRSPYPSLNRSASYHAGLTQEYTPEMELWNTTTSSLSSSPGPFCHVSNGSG


Molecular target: T1, NST1-GST fusion protein
Experiment: pull-down

binding result | Binder
binds | SnRK2.6-6xHis fusion protein (enzyme, Arabidopsis thaliana, UniProt Q940H6 1-362, looked up) MDRPAVSGPMDLPIMHDSDRYELVKDIGSGNFGVARLMRDKQSNELVAVKYIERGEKIDENVKREIINHRSLRHPNIVRFKEVILTPTHLAIVMEYASGGELFERICNAGRFSEDEARFFFQQLISGVSYCHAMQVCHRDLKLENTLLDGSPAPRLKICDFGYSKSSVLHSQPKSTVGTPAYIAPEVLLKKEYDGKVADVWSCGVTLYVMLVGAYPFEDPEEPKNFRKTIHRILNVQYAIPDYVHISPECRHLISRIFVADPAKRISIPEIRNHEWFLKNLPADLMNDNTMTTQFDESDQPGQSIEEIMQIIAEATVPPAGTQNLNHYLTGSLDIDDDMEEDLESDLDDLDIDSSGEIVYAM
binds | SnRK2.2-6xHis fusion protein (enzyme, Arabidopsis thaliana, UniProt Q39192 1-362, looked up) MDPATNSPIMPIDLPIMHDSDRYDFVKDIGSGNFGVARLMTDRVTKELVAVKYIERGEKIDENVQREIINHRSLRHPNIVRFKEVILTPSHLAIVMEYAAGGELYERICNAGRFSEDEARFFFQQLISGVSYCHAMQICHRDLKLENTLLDGSPAPRLKICDFGYSKSSVLHSQPKSTVGTPAYIAPEILLRQEYDGKLADVWSCGVTLYVMLVGAYPFEDPQEPRDYRKTIQRILSVTYSIPEDLHLSPECRHLISRIFVADPATRITIPEITSDKWFLKNLPGDLMDENRMGSQFQEPEQPMQSLDTIMQIISEATIPTVRNRCLDDFMADNLDLDDDMDDFDSESEIDVDSSGEIVYAL
binds | SnRK2.3-6xHis fusion protein (enzyme, Arabidopsis thaliana, UniProt Q39193 1-361, looked up) MDRAPVTTGPLDMPIMHDSDRYDFVKDIGSGNFGVARLMRDKLTKELVAVKYIERGDKIDENVQREIINHRSLRHPNIVRFKEVILTPTHLAIIMEYASGGELYERICNAGRFSEDEARFFFQQLLSGVSYCHSMQICHRDLKLENTLLDGSPAPRLKICDFGYSKSSVLHSQPKSTVGTPAYIAPEVLLRQEYDGKIADVWSCGVTLYVMLVGAYPFEDPEEPRDYRKTIQRILSVKYSIPDDIRISPECCHLISRIFVADPATRISIPEIKTHSWFLKNLPADLMNESNTGSQFQEPEQPMQSLDTIMQIISEATIPAVRNRCLDDFMTDNLDLDDDMDDFDSESEIDIDSSGEIVYAL
